# In patent US20250163149A1, “ANTI-RAGE ANTIBODY” (Swansea University, priority 2022, published 2025):
# T1: synthetic peptide S155 of the RAGE V-domain (amino acids 39-65) (human)
# T1 construct: injected as analyte in SPR; also called RAGE synthetic peptide
# T1 peptide: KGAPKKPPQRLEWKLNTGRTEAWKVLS
# B1: murine BG7 anti-RAGE monoclonal antibody (antibody, V domains shown)
# VH: EVKLDETGGGLVQPGRPMKLSCIASGFTLSDYWMNWVRQSPEKGLEWVAQIRNRPYNFETLYSDSVKGRFIISRDDSKNSVYLQMDNLGPDDSGIYYCSSYRYGLAYWGQGTLVTVSA
# VL: DILLTQSPAILSVSPGERVSISCRASQTIDKRIHWYQQRTNGSPRLLIKYMSESISGTPSRFSGSGSGTDFTLTINSVESEDIAVYYCQQTNYWPITFGSGTKLELK
# notes: Murine hybridoma antibody
# B2: Anti-BG7 (Chimeric) (antibody, V domains shown)
# VH: B1 VH
# VL: B1 VL
# notes: also called hBG7; chimeric BG7
# B3: murine IG7 anti-RAGE monoclonal antibody (antibody, V domains shown)
# VH: B1 VH
# VL: B1 VL
# notes: Same VH and VL as BG7; also called ID7
# B4: murine HA9 (mHA9) anti-RAGE monoclonal antibody (antibody, V domains shown)
# VH: EVKLVETGGGLVQPGRPMKLSCVASGFTLSDHWMNWVRQSPEKGLEWVAQIRNRPYKFEKYYSDSVKGRFTISRDDSKNSVYLQMNNLRAEDMGIYYCSSYRYGLAYWGQGTLVTVST
# VL: DNLLTQSPAILSVSPGERVSFSCRASQTIDTRIHWYQQRKNGSPRLLIRYISESLSGIPSRFSGSGSGTEFTLTINSVESEDIADYYCQQTESWPITFGSGTKLEIK
# notes: Murine hybridoma antibody, purified on protein G; also called HA9 clone
# B5: chimeric HA9 (hHA9) anti-RAGE antibody (antibody, V domains shown)
# VH: B4 VH
# VL: B4 VL
# notes: Chimeric ('chimeric humanised format') version of HA9 made in HEK293 by Absolute Antibody
# B6: murine BC3 anti-RAGE monoclonal antibody (antibody, part only; not given: Light chain variable region, V domains shown, part only)
# VH: QVQLKQSGPGLVQPSQSLSITCTVSGFSLTNYGVHWVRQSPGKGLEWLGVIWTGGNTDYNAAFISRLSITKDNSKSQVFFKMNSLQANDTAIYYCARNLRGGYYGAWFAYWGQGTLVTVSA
# B7: Anti-CG7 (Chimeric) (antibody, V domains shown)
# VH: B6 VH
# VL: DVVMTQTPLSLPVSLGDQASISCRSSQTLVHSNGNTYLHWYLQKPGQSPKLLIYKVSNRFSGVPDRFTGSGSGTDFTLKISRVEAEDLGVYFCSQSTHVPPLTFGAGTKLELK
# notes: also called hCG7; chimeric CG7
# B8: CG7: anti-RAGE antibody clone raised against RAGE peptide aa 39-65 (antibody, V domains shown)
# VH: B6 VH
# VL: B7 VL
# B9: murine CG7 (mCG7) anti-RAGE monoclonal antibody (antibody, V domains shown)
# VH: B6 VH
# VL: B7 VL
# notes: Murine hybridoma antibody
# Experiments:
# [1] = molecular target: Human rRAGE, full-length RAGE recombinant protein from Merck (human) (UniProt Q15109); assay: SPR, antibody amine-coupled to a CM5 chip as ligand, rRAGE protein as analyte at 0.0156-0.35 µM, 1:1 binding fit
# [2] = molecular target: synthetic peptide S155 of the RAGE V-domain (amino acids 39-65) (human); assay: SPR, antibody amine-coupled to a CM5 chip as ligand, peptide S155 (B-Rad) as analyte at 0.25-4 µM, 1:1 binding fit
# [3] = molecular target: T1, synthetic peptide S155 of the RAGE …; assay: ELISA, BSA-conjugated peptide S155 on the plate, two-fold dilutions of antibody, HRP anti-mouse, OD 450 nm
# Description: FIG. 2: Screening of purified anti-RAGE antibodies by enzyme linked immunosorbent assay (ELISA). BSA-conjugated synthetic peptides of RAGE protein were immobilized onto microplates and incubated with two-fold serial dilutions of antibodies.
# A 96-well plate was coated with 5 μg/ml of RAGE synthetic peptides or RAGE recombinant protein diluted in phosphate-buffered saline (pH 7.4) overnight at 4° C. The solution was removed, washed with PBS-Tween (PBST) and the plate was blocked with ELISA ultrablock buffer (Biorad) for 1 h at room temperature. After blocking, the plate was washed with PBST and a range of concentrations of α-RAGE antibodies was applied to the plate for 2 h at room temperature. The plate was washed thoroughly with PBST and incubated with HRP-conjugated anti-mouse antibodies diluted 1:1000 in PBS-Tween. After washes with PBST, TMB Core+ substrate solution (Biorad) was added to each well and incubated at room temperature for 30 minutes. 0.2M H2SO4 was used as a stop solution. Absorbance at 450 nm was measured in a Biorad absorbance microplate reader.
# The initial screening of the 6 murine antibody clones against RAGE was undertaken by ELISA. For this evaluation a range of 15 concentrations of each antibody clone was applied to the plate.
# [4] = molecular target: T1, synthetic peptide S155 of the RAGE …; assay: SPR (Biacore T200), antibody amine-coupled to a CM5 chip as ligand, RAGE peptide S155 (BioRad) as analyte, multi-cycle kinetics, 1:1 fit; 'No steady state.'
# Description: This was followed by diluting the ligand with the appropriate Acetate buffer to at least 10 μg/mL. The ligand immobilization on the surface Series S Sensor Chip CM5 (29-1496-03, Cytiva) was performed using the Amine Coupling Kit (BR100050, Cytiva) containing 1-Etyhyl-3-(3-dimethylaminopropyl)-carbodiimide hydrochloride (EDC), N-Hydroxysuccinimide (NHS) and 1.0M ethanolamine-HcL PH 8.5 in accordance with the manufacturer's instructions. For each experimental run, the ligand was immobilized in flow cells 2 or 4 while flow cells 1 or 3 were left unmodified. […] Following each binding cycle, the surface was regenerated with a 30 s injection of 10 mM Glycine-HcL, pH 2.5 regeneration solution (BR-1003-56), removing the bound antibody with a contact time of 30 s, flow rate of 30 μL/min and a stabilization period of Os. Blank cycles (buffer only injection followed by regeneration step) was also performed. Data was double referenced by first subtracting responses from the reference flow cell and then subtracting the blank cycles. Data was then fitted to a 1:1 binding model using Biacore™ T200 Evaluation Software 2.0 and Biacore™ Insight Evaluation Software.
# SPR analysis was subsequently used to evaluate the binding kinetics of the different murine clones to their targets (either using synthetic peptide used to produce the clones or recombinant RAGE protein (Uniprot reference: Q15109-1) Peptide S155=Original peptide from Biorad used to produce the murine clones. Human rRAGE=Full-length RAGE recombinant protein from Merck). The SPR parameters used for this analysis are described in the detailed methods.
# [5] = molecular target: T1, synthetic peptide S155 of the RAGE …; assay: SPR (Biacore T200), antibody amine-coupled to a CM5 chip as ligand, RAGE Peptide (S155) as analyte, multi-cycle kinetics, 1:1 fit; 'No steady state.'
# Description: (§1) Data were then fitted to a 1:1 binding model.
# (§2) For on-rate and off-rate screening, Biacore™ T200 system (Cytiva, Uppsala, Sweden) was used to perform SPR analysis with 1×HBS-EP+ buffer (0.01M Hepes, 0.15M NaCl, 0.003M ethylenediaminetetraacetic acid, and 0.05% Surfactant P20, pH 7.4) (BR100669) used as sample and running buffer. The analysis temperature at the sensor chip surface and within the compartment was set to 25° C. Firstly, pH scouting with 10 mM sodium acetate buffer 4.0 (BR-1003-49), 10 mM sodium acetate buffer 4.5 (BR-1003-50), 10 mM sodium acetate buffer 5.0 (BR-1003-51) and 10 mM sodium acetate buffer 5.5 (BR-1003-52) was performed to identify the optimal pH required for ligand (α-RAGE antibodies) immobilization. This was followed by diluting the ligand with the appropriate Acetate buffer to at least 10 μg/mL. The ligand immobilization on the surface Series S Sensor Chip CM5 (29-1496-03, Cytiva) was performed using the Amine Coupling Kit (BR100050, Cytiva) containing 1-Etyhyl-3-(3-dimethylaminopropyl)-carbodiimide hydrochloride (EDC), N-Hydroxysuccinimide (NHS) and 1.0M ethanolamine-HcL PH 8.5 in accordance with the manufacturer's instructions. For each experimental run, the ligand was immobilized in flow cells 2 or 4 while flow cells 1 or 3 were left unmodified.
# [6] = molecular target: T1, synthetic peptide S155 of the RAGE …; assay: SPR (Biacore T200), antibody amine-coupled to a CM5 chip as ligand, RAGE Peptide (S155) as analyte, multi-cycle kinetics, 1:1 fit
# Description: as §1, §2
# [7] = molecular target: synthetic peptide S155 of the RAGE V-domain (amino acids 39-65) (human); assay: SPR (Biacore T200), antibody amine-coupled to a CM5 chip as ligand, RAGE peptide S155 (BioRad) as analyte, multi-cycle kinetics, 1:1 fit; 'No steady state.'
# RAGE = RAGE (Homo sapiens, UniProt Q15109); assay: Binding target blocking assay by immunofluorescence on HEC-1A cells; format: cell-based; parameters: endogenous in cells; host or cells: HEC-1A (ECACC); settings: then antibody at 4 μg/ml
# Description: To proof that HA9 shares similar binding epitope as other α-RAGE antibodies, an immunofluorescence approach was used. For this purpose, 1.5×10^4 HEC1A cells/well (obtained from the European Collection of Authenticated Cell Cultures, ECACC, Public Health England, UK) were seeded in 8-well chamber slides (Ibidi) in 300 μl of stripped medium and cultured for 24 h in a humidified, 5% CO2 in air atmosphere incubator at 37° C. After culture, cells were fixed with 4% paraformaldehyde (Sigma) for 20 minutes, permeabilized with 0.1% Triton X-100 (Sigma) for 10 minutes at 4° C. and blocked with 3% BSA in PBS for 1 h. Cells were then pre-incubated with a primary antibody against RAGE at a concentration in excess (20 μg/ml in 3% BSA in PBS for 1 h) to block the specific epitope they bind, before cells were incubated with the α-RAGE antibody of interest at 4 μg/ml in 3% BSA-PBS overnight at 4° C. This was followed by 1 h incubation with Alexa-fluorophore-conjugated secondary antibodies. Cells were washed with PBS extensively between all steps, counterstained before imaging with Hoechst (Life Technologies™) and imaged using a LSM710 confocal fluorescence microscopy system (Zeiss, UK). The mean intensity of fluorescence was obtained using imageJ by measuring the integrated density per imaged field, normalised by the number of cells in the respective field and obtaining the mean from >10 fields obtained per condition. A decrease in fluorescence in the pre-blocked condition compared with the not-pre-blocked condition means both antibodies share similar epitope of binding on the same protein.
# Sequence of Human rRAGE, full-length RAGE recombinant protein from Merck (human) (Q15109 23-404 limits assumed): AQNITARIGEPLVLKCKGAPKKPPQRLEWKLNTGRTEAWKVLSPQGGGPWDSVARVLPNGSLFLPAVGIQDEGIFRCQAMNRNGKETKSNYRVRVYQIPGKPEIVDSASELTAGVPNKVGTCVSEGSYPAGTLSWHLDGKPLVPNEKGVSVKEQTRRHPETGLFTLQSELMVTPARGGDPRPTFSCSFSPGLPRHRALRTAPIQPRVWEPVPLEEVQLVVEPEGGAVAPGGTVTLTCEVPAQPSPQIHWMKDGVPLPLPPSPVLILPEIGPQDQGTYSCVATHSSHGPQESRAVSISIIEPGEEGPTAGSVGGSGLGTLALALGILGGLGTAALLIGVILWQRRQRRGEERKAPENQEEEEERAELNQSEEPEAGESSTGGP
# Sequence of RAGE (Q15109 23-404): as the sequence (Q15109 23-404 limits assumed) above
molecule,measurement,setting,value
"α-RAGE Abcam (Abcam, ab37647) (antibody)",Kd,[1],4.31 nM
same,koff,[1],0.00077 s⁻¹
same,kon,[1],180000 M⁻¹ s⁻¹
same,Kd,[2],54.1 nM
same,koff,[2],4.46 s⁻¹
same,kon,[2],8.2e+07 M⁻¹ s⁻¹
B1,EC50 (read off the curve),[3],~0.02 µg/mL
same,Kd,[4],410 nM
same,koff,[4],0.02 s⁻¹
same,kon,[4],49000 M⁻¹ s⁻¹
B2,Kd,[5],607 nM
same,koff,[5],0.0028 s⁻¹
B3,EC50 (read off the curve),[3],~0.02 µg/mL
same,Kd,[4],860 nM
same,koff,[4],0.00326 s⁻¹
same,kon,[4],3790 M⁻¹ s⁻¹
B4,EC50 (read off the curve),[3],~0.01 µg/mL
same,Kd,[4],720 nM
same,koff,[4],0.0033 s⁻¹
B5,Kd,[6],203 nM
same,koff,[6],0.0032 s⁻¹
B6,Kd,[7],890 nM
same,koff,[7],0.00333 s⁻¹
same,kon,[7],3720 M⁻¹ s⁻¹
B7,Kd,[5],320 nM
same,koff,[5],0.0095 s⁻¹
B8,staining after Abcam antibody pre-blocking,RAGE; Abcam antibody 20 μg/ml pre-incubation,did not result in a decrease
same,staining after N16 pre-blocking,RAGE; N16 20 μg/ml pre-incubation,unaffected
B9,Kd,[4],296 nM
same,koff,[4],0.00901 s⁻¹
same,kon,[4],30000 M⁻¹ s⁻¹
